In patent US20200087408A1 (ANAPTYSBIO, published 2020):
Each block holds one binder with its values, some of them ahead of it.

How the values were obtained:
[1] = target: cynomolgus monkey IL-36R variant 1 (on cells) (cynomolgus monkey); assay: cell-based or functional assay
[2] = target: cyno IL-36R (BIACORE antigen of Table 4) (cynomolgus monkey); assay: BIACORE T200 SPR, cyno IL-36R
human IL-36R (on cells) [3] = target: T1, human IL-36R (on cells) (human, UniProt Q9HB29 20-575); assay: cell-based or functional assay
T1 sequence (looked up): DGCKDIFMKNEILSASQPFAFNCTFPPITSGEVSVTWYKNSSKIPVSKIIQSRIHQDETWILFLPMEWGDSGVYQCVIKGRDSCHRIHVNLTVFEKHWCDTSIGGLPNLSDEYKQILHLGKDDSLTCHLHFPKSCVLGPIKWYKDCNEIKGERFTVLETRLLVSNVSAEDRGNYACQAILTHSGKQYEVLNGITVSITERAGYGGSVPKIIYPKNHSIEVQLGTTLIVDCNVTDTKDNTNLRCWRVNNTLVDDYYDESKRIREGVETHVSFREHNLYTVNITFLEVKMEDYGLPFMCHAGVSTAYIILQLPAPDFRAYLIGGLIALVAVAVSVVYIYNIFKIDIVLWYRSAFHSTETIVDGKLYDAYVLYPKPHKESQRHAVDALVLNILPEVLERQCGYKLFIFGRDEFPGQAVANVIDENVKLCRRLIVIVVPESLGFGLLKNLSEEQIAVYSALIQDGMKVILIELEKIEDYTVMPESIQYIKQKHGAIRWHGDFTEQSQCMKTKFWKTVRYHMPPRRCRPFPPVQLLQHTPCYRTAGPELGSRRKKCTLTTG

human IL-36R (on cells) [4] = target: T1, human IL-36R (on cells); assay: cell-based or functional assay; remark: listed apart in the source
human IL-36R (on cells) [5] = target: T1, human IL-36R (on cells); assay: flow cytometry on CHO-K cells co-expressing human IL-36R and human IL-1RAcP
Protocol: The binding of antibodies to CHO-K cells stably co-expressing human IL-36R and human IL-1RAcP was examined. Cynomolgus IL-36R allelic variation was examined by Sanger sequencing, and four distinct allelic variants were identified within cynomolgus monkey populations. The binding of antibodies to CHO-K cells stably co-expressing cynomolgus monkey IL-36R variant 1 and cynomolgus monkey IL-1RAcP was also examined for APE6155 and APE7247. Each antibody was incubated with CHO cells harvested using accutase, washed, and seeded at 500,000 cells per well. Cells were incubated with antibodies at concentrations ranging from 33 nM-16 pM for 30 minutes at 4° C., and washed three times with FACS staining buffer. Cells were spun and aspirated, and then the incubated with 100 μl paraformaldehyde for 10 minutes at room temperature. Cells were again washed, aspirated, and stained with 100 μL of anti-human IgG Alexa 647 for 20 minutes at 4° C. Cells were resuspended in 100 μL FACS analysis buffer before analysis on the FACS Array (BD Biosciences).

[6] = target: T2, extracellular domain of human IL-36R (human, UniProt Q9HB29 20-335); assay: KINEXA 3000 solution-phase equilibrium, soluble human IL-36R extracellular domain
T2 construct: extracellular domain; Immobilised on the chip in the BIACORE assay; soluble and bead-coupled in the KINEXA assay; also called soluble human IL-36R extracellular domain
T2 sequence (looked up): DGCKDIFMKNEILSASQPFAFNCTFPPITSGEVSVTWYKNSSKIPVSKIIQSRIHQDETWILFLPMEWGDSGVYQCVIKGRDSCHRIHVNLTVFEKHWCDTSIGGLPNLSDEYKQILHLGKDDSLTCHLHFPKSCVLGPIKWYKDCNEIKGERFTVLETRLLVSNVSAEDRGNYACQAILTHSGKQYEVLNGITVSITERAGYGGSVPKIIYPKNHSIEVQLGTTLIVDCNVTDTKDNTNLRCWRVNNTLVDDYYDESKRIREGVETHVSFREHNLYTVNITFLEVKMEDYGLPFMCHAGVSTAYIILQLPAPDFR
Protocol: The binding affinities of various purified antibodies comprising immunoglobulin heavy chain (HC) and light chain (LC) polypeptides described herein also were evaluated using a KINEXA® 3000 assay (Sapidyne Instruments, Boise, Id.) assays. KINEXA® technology measures the amount of unbound/free antibody molecule in solution phase after incubation with varying concentrations of antigen. Measuring binding events in the solution phase with micro beads for maximized surface area avoids mass transport limitations and mobility effects inherent to methods that measure binding to a solid phase. For each experiment, 50 μg of soluble human or cyno IL-36R extracellular domain was amine-coupled to 50 mg of UltraLink Biosupport beads (Thermo Fisher Scientific, Waltham, Mass.). […] Antibody-antigen solution was then flowed over antigen-coupled beads at a rate of 0.25 mL/min. Free antibody captured by beads was detected using ALEXA FLUOR™ 647-conjugated AffiniPure Donkey Anti-Human IgG (H+L) (Jackson ImmunoResearch, West Grove, Pa.) (500 ng/ml). The KD and/or ABC (active binding concentration) of antibody was obtained from non-linear regression analysis using a one-site homogeneous binding model in the KINEXA™ Pro Software.

[7] = target: T2, extracellular domain of human IL-36R; assay: BIACORE T200 SPR, human IL-36R extracellular domain immobilised, antibody injected
Protocol: The binding affinities of various purified antibodies comprising immunoglobulin heavy chain (HC) and light chain (LC) polypeptides described herein were evaluated using BIACORE™ T200 […] assays. BIACORE™ T200 evaluation software (GE Healthcare, Buckinghamshire, United Kingdom) is used to determine antibody-antigen binding kinetics and affinity. The extracellular domain of human IL-36R was immobilized at approximately 100 RU onto a CMS sensor chip (GE Healthcare, Waukesha, Wis.) using amine coupling chemistry. HBS-EP+ buffer (0.01 M HEPES, 0.15 M NaCl, 3 mM EDTA, 0.05% Polysorbate, pH 7.6) (Teknova, Hollister, Calif.) was used to reconstitute each antibody at various concentrations Each antibody concentration was then injected for two to three minutes over immobilized antigen at a flow rate of 30 μL/min, and allowed to dissociate for 15 minutes. The surface was regenerated with 60 μL of 3 M MgCl₂ after each cycle. Association and dissociation kinetic constants (kon and koff) were fit globally using a 1:1 binding model with mass transport with the BIACORE™ T200 evaluation software in order to report on- and off-rates (ka and kd, respectively), as well as affinities (KD).

[8] = target: cynomolgus monkey IL-36R variant 1 (on cells) (cynomolgus monkey); assay: flow cytometry on CHO-K cells co-expressing cynomolgus IL-36R variant 1 and cynomolgus IL-1RAcP
human IL-36R (on cells) [9] = target: T1, human IL-36R (on cells); assay: cell-based or functional assay; remark: listed apart in the source
[10] = target: cynomolgus IL-36R (on cells, allelic variant not stated) (cynomolgus monkey), A0A2K5; assay: cell-based or functional assay
Sequence of cynomolgus IL-36R (on cells, allelic variant not stated) (cynomolgus monkey), A0A2K5 (chain, as listed by the source mutant): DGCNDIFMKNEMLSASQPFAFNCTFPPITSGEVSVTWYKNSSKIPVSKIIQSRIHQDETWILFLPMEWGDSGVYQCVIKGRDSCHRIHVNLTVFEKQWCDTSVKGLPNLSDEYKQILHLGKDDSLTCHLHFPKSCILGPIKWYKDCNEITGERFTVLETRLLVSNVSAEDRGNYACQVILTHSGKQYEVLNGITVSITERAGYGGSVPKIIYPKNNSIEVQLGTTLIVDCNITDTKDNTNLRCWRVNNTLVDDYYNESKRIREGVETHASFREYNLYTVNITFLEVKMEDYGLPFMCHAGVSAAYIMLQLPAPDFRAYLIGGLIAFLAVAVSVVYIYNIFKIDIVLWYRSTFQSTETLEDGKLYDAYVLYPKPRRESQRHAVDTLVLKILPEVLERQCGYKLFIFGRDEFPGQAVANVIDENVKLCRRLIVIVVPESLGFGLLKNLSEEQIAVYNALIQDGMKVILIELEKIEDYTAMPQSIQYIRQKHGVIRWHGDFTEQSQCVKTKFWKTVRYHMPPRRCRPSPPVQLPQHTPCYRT

[11] = target: cynomolgus monkey IL-36R variant 2 (on cells) (cynomolgus monkey), A0A2K5; assay: cell-based or functional assay
Sequence of cynomolgus monkey IL-36R variant 2 (on cells) (cynomolgus monkey), A0A2K5 (chain, as listed by the source mutant): as above

[12] = target: cynomolgus monkey IL-36R variant 3 (on cells) (cynomolgus monkey), A0A2K5; assay: cell-based or functional assay
Sequence of cynomolgus monkey IL-36R variant 3 (on cells) (cynomolgus monkey), A0A2K5 (chain, as listed by the source mutant): as above

- EC50 (nM), IL-8 luciferase reporter assay, 300 ng/ml IL-36γ (Cyno IL-36R variant 1) [1]: 0.079 nM
- Kd [2]: < 0.02 nM
- EC50 (nM), HEK human IL-36R IL-8 luciferase reporter assay, 20 ng/ml hIL-36β (human IL-36R (on cells) [3]): 0.114 nM
- EC50 (nM), HEK human IL-36R IL-8 luciferase reporter assay, 50 ng/ml hIL-36α (human IL-36R (on cells) [3]): 0.066 nM
- EC50 (nM), HEK human IL-36R IL-8 luciferase reporter assay, 200 ng/ml hIL-36γ (human IL-36R (on cells) [3]): 0.104 nM
- EC50 (nM), IL-8 secretion by primary human keratinocytes, 1 ng/ml human IL-36β (human IL-36R (on cells) [4]): 0.336 nM
- EC50 (nM), IL-8 secretion by primary human keratinocytes, 10 ng/ml human IL-36α (human IL-36R (on cells) [4]): 0.142 nM
- EC50 (nM), IL-8 secretion by primary human keratinocytes, 100 ng/ml human IL-36γ (human IL-36R (on cells) [4]): 0.074 nM
- EC50 (human IL-36R (on cells) [5]): 2.8 nM
- Kd [6]: 0.1 nM
- Kd [7]: < 0.02 nM
- EC50 [8]: 3.3 nM
B1: Hzd 18D4 (APE7247) (antibody, V domains shown)
VH: DVQFQESGPGLVKPSQTLSLTCTVTGYSITADFAWNWIRQPPGKGLEWIGYISYSGDTNYNPSLKSRVTITRDTSKNQFSLKLSSVTAADTAVYFCAIRGPYSFTYWGQGTLVTVSS
VL: DIQMTQSPSSLSASVGDRVTITCRASQWINNYLNWYQQKPGKAPKLLIYYTSMLHSGVPSRFSPSGSGNDYTFTISSLQPEDIATYYCQQGHTLPWTFGGGTKVEIKR
notes: also called APE6903; APE07247

- EC50 (nM), IL-8 luciferase reporter assay, 300 ng/ml IL-36γ (Cyno IL-36R variant 1) [1]: 0.042 nM
- EC50 (nM), HEK human IL-36R IL-8 luciferase reporter assay, 20 ng/ml hIL-36β (human IL-36R (on cells) [3]): 0.22 nM
- EC50 (nM), HEK human IL-36R IL-8 luciferase reporter assay, 50 ng/ml hIL-36α (human IL-36R (on cells) [3]): 0.23 nM
- EC50 (nM), HEK human IL-36R IL-8 luciferase reporter assay, 200 ng/ml hIL-36γ (human IL-36R (on cells) [3]): 0.4 nM
- EC50 (nM), IL-8 secretion by primary human keratinocytes, 1 ng/ml human IL-36β (human IL-36R (on cells) [4]): 0.227 nM
- EC50 (nM), IL-8 secretion by primary human keratinocytes, 10 ng/ml human IL-36α (human IL-36R (on cells) [4]): 0.125 nM
- EC50 (nM), IL-8 secretion by primary human keratinocytes, 100 ng/ml human IL-36γ (human IL-36R (on cells) [4]): 0.093 nM
- EC50 (nM), IL-8 secretion by primary human monocytes, human IL-36α (human IL-36R (on cells) [9]): 0.088 nM
- EC50 (nM), IL-8 secretion by primary human monocytes, human IL-36β (human IL-36R (on cells) [9]): 0.117 nM
- EC50 (nM), IL-8 secretion by primary human monocytes, human IL-36γ (human IL-36R (on cells) [9]): 0.078 nM
- EC50 (nM), HEK cyno IL-36R IL-8 luciferase reporter assay, 300 ng/ml cIL-36γ [10]: 0.31 nM
- EC50 (nM), HEK cyno IL-36R IL-8 luciferase reporter assay, 2 µg/ml cIL-36α [10]: 0.08 nM
- EC50 (nM), HEK cyno IL-36R IL-8 luciferase reporter assay, 10 µg/ml cIL-36β [10]: 0.13 nM
- EC50 (nM), IL-8 secretion by primary cynomolgus PBMCs, 10 ng/ml cyno IL-36β [10]: 1.5 nM
- EC50 (nM), IL-8 secretion by primary cynomolgus PBMCs, 50 ng/ml cyno IL-36α [10]: 1.2 nM
- EC50 (nM), IL-8 secretion by primary cynomolgus PBMCs, 250 ng/ml cyno IL-36γ [10]: 0.89 nM
- EC50 (nM), IL-8 secretion by primary cynomolgus keratinocytes, 10 ng/ml cyno IL-36β [10]: 1.4 nM
- EC50 (nM), IL-8 secretion by primary cynomolgus keratinocytes, 50 ng/ml cyno IL-36α [10]: 1.1 nM
- EC50 (nM), IL-8 secretion by primary cynomolgus keratinocytes, 250 ng/ml cyno IL-36γ [10]: 1.1 nM
- EC50 (nM), IL-8 luciferase reporter assay, 300 ng/ml IL-36γ (Cyno IL-36R variant 2) [11]: 0.043 nM
- EC50 (nM), IL-8 luciferase reporter assay, 300 ng/ml IL-36γ (Cyno IL-36R variant 3) [12]: 0.21 nM
- EC50 (human IL-36R (on cells) [5]): 1.5 nM
- Kd [6]: 0.169 nM
- Kd [7]: 0.071 nM
- EC50 [8]: 2.4 nM
B2: Hzd 5D3 (APE6155) (antibody, V domains shown)
VH: QVQLVQSGAEVKKPGASVKVSCKASGYTFTNYWMNWVRQAPRQGLEWMGMFHPTGDVTRLNQKFKDRVTMTRDTSTSTVYMELSSLRSEDTAVYYCARTTSMIIGGFAYWGQGTLVTVSS
VL: DIVMTQTPLSLSVTPGQPASISCRSSKSLLHRNAITYFYWYLHKPGQPPQLLIYQMSNLASGVPDRFSGSGSGTDFTLKISRVEAEDVGVYYCAQNLELPLTFGGGTKVEIK
notes: also called APE6917; APE06155
